Test results taken from patent US20260028389A1 (BIOCRYST PHARMACEUTICALS, published 2026).
Changes are numbered by the printed parent chain. Numbers in names are those of the source.

T1: rhKLK14 (human, UniProt Q9P0G3 25-251)
T1 sequence (looked up): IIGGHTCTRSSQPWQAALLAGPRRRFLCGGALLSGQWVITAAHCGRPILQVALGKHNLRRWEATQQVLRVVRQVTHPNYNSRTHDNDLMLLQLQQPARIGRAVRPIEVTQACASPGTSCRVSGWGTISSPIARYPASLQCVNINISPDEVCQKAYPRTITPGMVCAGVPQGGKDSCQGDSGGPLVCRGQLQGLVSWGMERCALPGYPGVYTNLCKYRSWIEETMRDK

B1: Spink9-112.K62G.Fc (SEQ ID NO: 56) (Fc fusion)
chain: IECAKQTKQMVDCSHYKKLPPEQELYCTREYDPICGSDGKTYGNDCFFCSKVKKTDGTLKFVHFGKCEPKSCDKTHTCPPCPAPEAAGGPSVFLFPPKPKDTLMISRTPEVTCVVVDVSHEDPEVKFNWYVDGVEVHNAKTKPREEQYNSTYRVVSVLTVLHQDWLNGKEYKCKVSNKALPAPIEKTISKAKGQPREPQVYTLPPSREEMTKNQVSLTCLVKGFYPSDIAVEWESNGQPENNYKTTPPVLDSDGSFFLYSKLTVDKSRWQQGNVFSCSVLHEALHSHYTQKSLSLSPGK
notes: Mutant SPINK9 domain fused directly to a C-terminal IgG Fc
B2: Spink9-186.Fc (SEQ ID NO: 58) (Fc fusion)
chain: B1 chain with E22A, E24L, L25I, R29K, G43K
notes: as for B1
B3: Spink9-183.Fc (SEQ ID NO: 57) (Fc fusion)
chain: B1 chain with E22Q, E24Q, L25A, E30D, G43K
notes: as for B1
B4: Spink9-236.Fc (SEQ ID NO: 60) (Fc fusion)
chain: B1 chain with E24Q, Y26M, G43K
notes: as for B1
B5: Spink9-30.Fc (SEQ ID NO: 55) (Fc fusion)
chain: B1 chain with E24V, L25S, Y26W, G43K
notes: as for B1
B6: SPINK9-112.2K62G.Fc (SEQ ID NO: 76) (Fc fusion)
chain: B1 chain with M104Y, S106T, T108E, L280M, S286N
notes: as for B1
B7: Spink9 WT (Fc fusion)
chain: IECAKQTKQMVDCSHYKKLPPGQQRFCHHMYDPICGSDGKTYKNDCFFCSKVKKTDGTLKFVHFGKC
notes: not shown: The C-terminal IgG Fc fragment of the wild-type fusion

target: KLK5 (UniProt Q9Y337 67-293, limits assumed); test: cell-based or functional assay

IC50 of KLK5 enzymatic activity, pH 5.5 [nM]	IC50 of KLK5 enzymatic activity, pH 7.5 [nM]	KLK5 IC50 nM pH 5.5 (enzymatic activity) [nM]	KLK5 IC50 nM pH 7.5 (enzymatic activity) [nM]	Molecule
685	80			Wild Type Spink9 (SEQ ID NO: 2)
		0.9	1.1	B1
		8.3	1.9	B2
		3	1.4	B3
		3.5	1.5	B4
		2.4	2.2	B5

target: rhKLK7 (human, UniProt P49862 30-253); test: cell-based or functional assay
Sequence (P49862 30-253): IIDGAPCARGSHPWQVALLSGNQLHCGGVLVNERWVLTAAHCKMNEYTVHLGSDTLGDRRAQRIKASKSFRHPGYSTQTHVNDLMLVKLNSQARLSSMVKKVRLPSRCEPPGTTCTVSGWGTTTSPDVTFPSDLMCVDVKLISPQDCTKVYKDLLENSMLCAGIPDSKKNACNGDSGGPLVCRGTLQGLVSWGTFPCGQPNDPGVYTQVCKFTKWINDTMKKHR

KLK7 IC50 (nM) pH 7.5 (enzymatic activity) [nM]	Molecule
2.4	B1
8.3	B2
5.4	B3
43.6	B4
10.8	B5

target: T1, rhKLK14; test: cell-based or functional assay

KLK14 IC50 (nM) pH 8.0 (enzymatic activity) [nM]	KLK14, percent inhibition at 316 nM SPINK9 polypeptide, pH 8.0 [%]	Molecule
246		B1
	0	B2
	0	B3
	0	B4
	0	B5

target: T2, recombinant human KLK5 C-6His (Novoprotein, Catalog No. C415) (human, UniProt Q9Y337 23-293); test: ELISA on captured KLK5 C-6His; binder incubated in human serum, day 0
T2 construct: Bought protein; also called KLK5 protein (Novoprotein); not shown: C-terminal 6xHis tag ('C-6His')

EC50 [nM]	Molecule
0.1	B1
0.09	B2
0.07	B3
0.05	B4
0.08	B5

target: T2, recombinant human KLK5 C-6His …; test: ELISA on captured KLK5 C-6His; binder incubated in human serum, day 1

EC50 [nM]	Molecule
0.14	B1
0.16	B2
0.09	B3
0.08	B4
0.1	B5

target: T2, recombinant human KLK5 C-6His …; test: ELISA on captured KLK5 C-6His; binder incubated in human serum, day 4

EC50 [nM]	Molecule
0.16	B1
0.21	B2
0.12	B3
0.12	B4
0.1	B5

target: T2, recombinant human KLK5 C-6His …; test: ELISA on captured KLK5 C-6His; binder incubated in human serum, day 7

EC50 [nM]	Molecule
0.17	B1
0.12	B2
0.11	B3
0.1	B4
0.1	B5

target: T2, recombinant human KLK5 C-6His …; test: ELISA on captured KLK5 C-6His; binder incubated in human serum, day 14

EC50 [nM]	Molecule
0.17	B1
0.29	B2
0.1	B3
0.11	B4
0.13	B5

target: T2, recombinant human KLK5 C-6His …; test: ELISA, KLK5 C-6His captured by anti-His mAb; binder incubated in human serum, day 0

EC50 [nM]	Molecule
0.06	B6

target: T2, recombinant human KLK5 C-6His …; test: ELISA, KLK5 C-6His captured by anti-His mAb; binder incubated in human serum, day 1

EC50 [nM]	Molecule
0.059	B6

target: T2, recombinant human KLK5 C-6His …; test: ELISA, KLK5 C-6His captured by anti-His mAb; binder incubated in human serum, day 4

EC50 [nM]	Molecule
0.08	B6

target: T2, recombinant human KLK5 C-6His …; test: ELISA, KLK5 C-6His captured by anti-His mAb; binder incubated in human serum, day 7

EC50 [nM]	Molecule
0.11	B6

target: T2, recombinant human KLK5 C-6His …; test: ELISA, KLK5 C-6His captured by anti-His mAb; binder incubated in human serum, day 14

EC50 [nM]	Molecule
0.065	B6

target: human FcRn (AcrobioSystems; Catalog No: FCM-H5286) (human) (UniProt P55899); test: SPR Biacore 8K, antibody coupled to CM5 chip, human FcRn as analyte, pH 6.0, steady state affinity fit

Kd [nM]	Molecule
3100	Rituximab (Roche) (antibody)

target: T3, human FcRn (AcrobioSystems; Catalog No: FCM-H5286) (human, UniProt P55899 24-297; P61769 21-119); test: SPR Biacore 8K, polypeptide coupled to CM5 chip, human FcRn as analyte, pH 6.0, steady state affinity fit
T3 construct: Bought protein

Kd [nM]	Molecule
233	B1
232	B2
189	B6
222	B3
231	B4
229	B5

target: T2, recombinant human KLK5 C-6His …; test: SPR Biacore T200, polypeptide captured by anti-human IgG Fc, KLK5 as analyte, pH 7.4, steady state affinity fit

Kd [nM]	Molecule
99	B7
0.0189	B2
0.0216	B3
0.0291	B4
0.0909	B5
